Reference: paper PMC5992148, “Molecular principles underlying dual RNA specificity in the Drosophila SNF protein”
Values belong to the binder of their own block, whether it stands above or below them.

Experiments:
[1] = target: T1, dSNF1-101 (RRM1) (UniProt P43332 1-101); assay: filter binding; without dU2A'; ITC: 150 mM KCl, 1 mM MgCl2, 20 mM HEPES-NaOH pH 7.5, 5% glycerol, 10 C; NMR: 50 mM KCl, 20 mM sodium cacodylate pH 6.5, 2 mM EDTA, 23 C; filter binding: KCl varied, other conditions not stated; conditions: protein: recombinant; tags: none stated; label: 32P internal; hairpin
T1 sequence: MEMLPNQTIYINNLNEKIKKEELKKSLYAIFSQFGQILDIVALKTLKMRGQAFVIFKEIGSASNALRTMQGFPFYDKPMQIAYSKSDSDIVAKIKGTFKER

[2] = target: Drosophila U2A′ (dU2A′), triple cysteine variant, produced apart from dSNF (Drosophila melanogaster) (UniProt Q9V4Q8); assay: ITC; dU2A′ as the sample (2.5 µM), dSNF^1-101 as titrant (25 µM); 22 °C; 50 mM KCl, 100 mM arginine, 10 mM sodium cacodylate, pH 6.5 (methods) or pH 7 (results)
[3] = target: T2, dSNF1-96 (RRM1) (Drosophila melanogaster, UniProt P43332 1-96); assay: ITC; 1 mM Mg2+, 10 C; n 0.894; ITC: 150 mM KCl, 1 mM MgCl2, 20 mM HEPES-NaOH pH 7.5, 5% glycerol, 10 C; NMR: 50 mM KCl, 20 mM sodium cacodylate pH 6.5, 2 mM EDTA, 23 C; filter binding: KCl varied, other conditions not stated; conditions: protein: recombinant; tags: N-terminal His6, TEV-cleaved; hairpin, 10-nt loop, 9-bp blunt stem
T2 sequence: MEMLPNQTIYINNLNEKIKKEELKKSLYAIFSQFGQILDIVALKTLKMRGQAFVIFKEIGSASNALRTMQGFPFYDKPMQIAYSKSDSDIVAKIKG

[4] = target: T2, dSNF1-96 (RRM1); assay: ITC; 1 mM Mg2+, 10 C; n 0.781; ITC: 150 mM KCl, 1 mM MgCl2, 20 mM HEPES-NaOH pH 7.5, 5% glycerol, 10 C; NMR: 50 mM KCl, 20 mM sodium cacodylate pH 6.5, 2 mM EDTA, 23 C; filter binding: KCl varied, other conditions not stated; conditions: protein: recombinant; tags: N-terminal His6, TEV-cleaved; hairpin, 11-nt loop, U:G closing pair, blunt
[5] = target: T2, dSNF1-96 (RRM1); assay: crystal structure; 2.0 A; ITC: 150 mM KCl, 1 mM MgCl2, 20 mM HEPES-NaOH pH 7.5, 5% glycerol, 10 C; NMR: 50 mM KCl, 20 mM sodium cacodylate pH 6.5, 2 mM EDTA, 23 C; filter binding: KCl varied, other conditions not stated; conditions: protein: recombinant; tags: N-terminal His6, TEV-cleaved; hairpin, blunt, 10-nt loop
[6] = target: T1, dSNF1-101 (RRM1); assay: NMR chemical shift perturbation; 300 uM protein, 700 uM RNA; ITC: 150 mM KCl, 1 mM MgCl2, 20 mM HEPES-NaOH pH 7.5, 5% glycerol, 10 C; NMR: 50 mM KCl, 20 mM sodium cacodylate pH 6.5, 2 mM EDTA, 23 C; filter binding: KCl varied, other conditions not stated; conditions: protein: recombinant; tags: none stated; hairpin

B1: dU2SLIV G10A (structured_RNA)
RNA: GGCCGGUAUUACAGUACCGCCGGGUCC
- binding signal [1]: 1000 fold lower affinity than wt N6

- Kd [2]: 4.2 nM
- dH [2]: -241 kcal/mol
B2: Drosophila melanogaster SNF RRM1, residues 1-101 (dSNF^1-101) (domain or fragment)
chain: MEMLPNQTIYINNLNEKIKKEELKKSLYAIFSQFGQILDIVALKTLKMRGQAFVIFKEIGSASNALRTMQGFPFYDKPMQIAYSKSDSDIVAKIKGTFKER

B3: dU1SLII (ITC) (structured_RNA)
RNA: CCAGGACGCAUUGCACCUCGCGUCCUGG
- Kd [3]: 34 nM

B4: dU2SLIV G13C (structured_RNA)
RNA: GGCCGGUAUUGCACUACCGCCGGGUCC
- binding signal [1]: 16 fold higher affinity than wt N6

B5: dU2SLIV (ITC) (structured_RNA)
RNA: CCAGGACGUAUUGCAGUACCGCGUCCUGG
- Kd [4]: 782 nM

B6: dU1SLII 22-mer (crystal) (structured_RNA)
RNA: GGCCGCAUUGCACCUCGCGGCC
- binding result [5]: binds

B7: dU2SLIV G13A (structured_RNA)
RNA: GGCCGGUAUUGCAAUACCGCCGGGUCC
- binding signal [1]: 200 fold lower affinity than wt N6

B8: dU1SLII (T7, NMR) (structured_RNA)
RNA: GGCCGGCAUUGCACCACGCGCCGGGUCC
- binding result [6]: binds
